Experimental findings from PMC3207831, “Determinants of the Differential Antizyme-Binding Affinity of Ornithine Decarboxylase” (PLoS ONE, 2011) are described below.

The term Kd denotes a measure of binding affinity in units of concentration. As usually defined, the stoichiometry N is a count of units in the complex or per binding partner.

Data set [1] deals with ODC_7M (ODC_Q119H/A124R/N125D/Q129D/E136V/V137D/M140E) (human) (UniProt P11926).
Data set [2] deals with human ornithine decarboxylase, wild type (human) (UniProt P11926).
Data set [3] concerns the target ODC_7M (ODC_Q119H/A124R/N125D/Q129D/E136V/V137D/M140E) (human) (UniProt P11926). Description: AUC; sedimentation velocity, 20°C, 42,000 rpm, absorbance at 280 nm; ODC fixed at 0.3 mg/mL, AZ 0.03, 0.06 or 0.09 mg/mL; global fit to the AB hetero-association model (SEDPHAT).
For data set [4], the target named is ODC_7M(-Q119H) (ODC_A124R/N125D/Q129D/E136V/V137D/M140E) (human) (UniProt P11926). Described as above.
The target in another data set is ODC_7M(-V137D) (human) (UniProt P11926). The data set is described as above.
The target of data set [5] is ODC_Q119H/V137D/M140E (human) (UniProt P11926). Described as above.
The target of data set [6] is human ornithine decarboxylase, wild type (human) (UniProt P11926). The description is as above.
Data set [7] concerns the molecule itself. Briefly: AUC; sedimentation velocity, 20°C, 42,000 rpm, continuous size distribution (SEDFIT); ODC in the absence of AZ.

In the case of “antizyme (from UniProt P54368 1-228) (natural protein)”, the ODC enzyme activity left with increasing AZ (ODC 20 μg/mL, AZ 0 to 28 μg/mL); value at a molar ratio of 1:1 AZ:ODC in data set [1] is 90%. In data set [2], the ODC enzyme activity left with increasing AZ (ODC 20 μg/mL, AZ 0 to 28 μg/mL); value at a molar ratio of 2:1 monomeric AZ to dimeric ODC was 30%. Besides, the Kd in data set [3] stood at 12.4 µM; in data set [4], 1.42 µM; with ODC_7M(-V137D) (human), 1.2 µM; in data set [5], 9.95 µM; in data set [6], 0.22 µM.

B1: human ornithine decarboxylase, wild type (enzyme, UniProt P11926 1-461, looked up)
chain: MNNFGNEEFDCHFLDEGFTAKDILDQKINEVSSSDDKDAFYVADLGDILKKHLRWLKALPRVTPFYAVKCNDSKAIVKTLAATGTGFDCASKTEIQLVQSLGVPPERIIYANPCKQVSQIKYAANNGVQMMTFDSEVELMKVARAHPKAKLVLRIATDDSKAVCRLSVKFGATLRTSRLLLERAKELNIDVVGVSFHVGSGCTDPETFVQAISDARCVFDMGAEVGFSMYLLDIGGGFPGSEDVKLKFEEITGVINPALDKYFPSDSGVRIIAEPGRYYVASAFTLAVNIIAKKIVLKEQTGSDDEDESSEQTFMYYVNDGVYGSFNCILYDHAHVKPLLQKRPKPDEKYYSSSIWGPTCDGLDRIVERCDLPEMHVGDWMLFENMGAYTVAAASTFNGFQRPTIYYVMSGPAWQLMQQFQNPDFPPEVEEQDASTLPVSCAWESGMKRHRAACASASINV
notes: human ornithine decarboxylase (ODC, EC 4.1.1.17); Homodimer in the absence of AZ by sedimentation velocity; also called hODC; source: E. coli JM109 (pQE30), purified (Ni-NTA)
On to B1, for which, in data set [7], the “stoichiometry N” value stood at 2.
